Measured values: article PMC10196870, “Structural insights into the substrate recognition of serine palmitoyltransferase from Sphingobacterium multivorum” (The Journal of Biological Chemistry, 2023)

Target: the molecule itself
Experiment: crystal structure; crystals grown in Tris buffer, soaked in Tricine-buffered Tris-free solution without or with amino acids (L-Ser, L-Hse, Gly, L-Ala, L-Thr); space group P4(1)2(1)2, one molecule per asymmetric unit, dimer generated by crystallographic symmetry; 100 K

B1: Sphingobacterium multivorum serine palmitoyltransferase (enzyme, UniProt A7BFV6 1-399, looked up)
chain: MSKGKLGEKISQFKIVEELKAKGLYAYFRPIQSKQDTEVKIDGRRVLMFGSNSYLGLTTDTRIIKAAQDALEKYGTGCAGSRFLNGTLDIHVELEEKLSAYVGKEAAILFSTGFQSNLGPLSCLMGRNDYILLDERDHASIIDGSRLSFSKVIKYGHNNMEDLRAKLSRLPEDSAKLICTDGIFSMEGDIVNLPELTSIANEFDAAVMVDDAHSLGVIGHKGAGTASHFGLNDDVDLIMGTFSKSLASLGGFVAGDADVIDFLKHNARSVMFSASMTPASVASTLKALEIIQNEPEHIEKLWKNTDYAKAQLLDHGFDLGATESPILPIFIRSNEKTFWVTKMLQDDGVFVNPVVSPAVPAEESLIRFSLMATHTYDQIDEAIEKMVKVFKQAEVETLI
modifications: PLP-Lys244 internal aldimine (ligand-free form); in the amino acid complexes PLP forms an external aldimine with the amino acid
notes: serine palmitoyltransferase of Sphingobacterium multivorum, full length, 398 amino acid residues; the model holds Ser2 to Val395; no tag is mentioned; also called S. multivorum SPT; SPT; source: E. coli BL21 (DE3) pLysS, purified (DEAE, Butyl, second DEAE column chromatography, desalting)
B1: binds.
